Measured values as given in paper PMC5154190, “HBV maintains electrostatic homeostasis by modulating negative charges from phosphoserine and encapsidated nucleic acids” (Scientific Reports, 2016).
Where a chain is given by its changes, count along the chain named. Names and notes keep the numbering of the source.

B1: HBc mutant S3A, expressed in HuH-7 cells (natural protein)
chain: MDIDPYKEFGATVELLSFLPSDFFPSVRDLLDTASALYREALESPEHCSPHHTALRQAILCWGELMTLATWVGVNLEDPASRDLVVSYVNTNMGLKFRQLLWFHISCLTFGRETVIEYLVSFGVWIRTPPAYRPPNAPILSTLPETTVVRRRGRAPRRRTPAPRRRRSQAPRRRRSQSRESQC
B2: HBc mutant S7A, expressed in HuH-7 cells (natural protein)
chain: B1 chain with S168A, S176A, S178A, S181A
B3: HBc mutant S7D, expressed in HuH-7 cells (natural protein)
chain: B1 chain with A155D, A162D, S168D, A170D, S176D, S178D, S181D
B4: HBc mutant S7D, E. coli-expressed (natural protein)
chain: B1 chain with A155D, A162D, S168D, A170D, S176D, S178D, S181D
B5: HBc mutant S3D, expressed in HuH-7 cells (natural protein)
chain: B1 chain with A155D, A162D, A170D
B6: HBc mutant S3D, E. coli-expressed (natural protein)
chain: B1 chain with A155D, A162D, A170D

Target: the molecule itself
Test: native gel or EMSA

Protein	binding result
B1	binds
B2	binds
B3	binds
B4	binds
B5	binds
B6	binds
